For one molecule, response units and percent of the GST-RHA(647-1075)/EWS-FLI1 association left with 0.1 μM E9R results are on record in article PMC2777681.

For assay [1], the target named is full-length purified recombinant EWS-FLI1. As to the kind of experiment: SPR. On the technique in general: SPR reads the build-up and loss of mass on a sensor chip optically.
For assay [2] the target is unchanged. The experiment in a line: co-IP.

B1: E9R peptide, Q08211 823-832 (peptide)
peptide: PPPLDAVIEA
Take B1: in assay [1], the response units at 32 μM E9R was determined as 13 R.U, the response units at 32 μM E9R with 10 μM YK-4-279 stood at 5 R.U, the response units at 64 μM E9R came out at 17 R.U and the response units at 64 μM E9R with 10 μM YK-4-279 was found to be 7 R.U. Moreover, in assay [2], the percent of the GST-RHA(647-1075)/EWS-FLI1 association left with 0.1 μM E9R came to 50%.
